Test results taken from the supplement of paper PMC10567573.

B1: SLC19A2 (parent)
chain: FASLRPSEPFLTPYLLGPDKNLTE
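Also: lentivirally expressed fusions sorted by FACS into six bins by GFP to DsRed ratio, PSI derived from sequencing read proportions per bin multiplied by bin number.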

Variants of: B1
Experiment: protein stability index of a GFP-peptide fusion (GPS, HEK-293T) (PSI 1-6); higher = more stable
Conditions: c terminus: a fixed tail appended
For FASLRPSEPFLTPYLLGPVKNLTE, the protein stability index was 2.16.
For FASLRPSEPFLTPYLLGPAKNLTE, the protein stability index was 1.56.
For FASLRPSEPFLTPYLLGPQKNLTE, the protein stability index was 1.57.
Work on FASLRPSEPFLTPYLLGPHKNLTE yielded a protein stability index of 1.57.
Work on FASLRPSEPFLTPYLLGPCKNLTE yielded a protein stability index of 1.44.
FASLRPSEPFLTPYLLGPDKNLFE showed a protein stability index of 1.3.
FASLRPSEPFLTPYLLGPDKNLWE gave a protein stability index of 1.65.
In the case of FASLRPSEPFLTPYLLGPDKNLLE, the protein stability index is reported as 1.64.
FASLRPSEPFLTPYLLGPDKNLVE gave a protein stability index of 1.29.
Variant FASLRPSEPFLTPYLLGPDKNLGE has a protein stability index of 1.86.
With FASLRPSEPFLTPYLLGTDKNLTE the protein stability index was 1.4.
In the case of FASLRPSEPFLTPYLLGVDKNLTE, the protein stability index is reported as 1.41.
With FASLRPSEPFLTPYLLGLDKNLTE the protein stability index was 1.8.
Variant FASLRPSEPFLTPYLLGKDKNLTE has a protein stability index of 2.12.
Variant FASLIPSEPFLTPYLLGPDKNLTE has a protein stability index of 2.13.
Work on FASLLPSEPFLTPYLLGPDKNLTE yielded a protein stability index of 2.1.
FASLTPSEPFLTPYLLGPDKNLTE showed a protein stability index of 1.98.
With FASLWPSEPFLTPYLLGPDKNLTE the protein stability index was 2.43.
In the case of FASLRPSESFLTPYLLGPDKNLTE, the protein stability index is reported as 1.61.
FASLRPSEVFLTPYLLGPDKNLTE gave a protein stability index of 2.9.
With FASLRPSEYFLTPYLLGPDKNLTE the protein stability index was 2.29.
With FASLRPSEHFLTPYLLGPDKNLTE the protein stability index was 1.67.
FASLRPSECFLTPYLLGPDKNLTE gave a protein stability index of 2.26.
For FASLRPSEPFSTPYLLGPDKNLTE, the protein stability index was 1.91.
For FASLRPSEPFNTPYLLGPDKNLTE, the protein stability index was 1.78.
Variant FASLRPSEPFTTPYLLGPDKNLTE has a protein stability index of 1.94.
FASLRPSEPFLTAYLLGPDKNLTE showed a protein stability index of 2.58.
Work on FASLRPSEPFLTCYLLGPDKNLTE yielded a protein stability index of 1.84.
With FASLRPSEPFLTPTLLGPDKNLTE the protein stability index was 2.58.
Variant FASLRPSEPFLTPLLLGPDKNLTE has a protein stability index of 2.06.
For FASLRPSEPFLTPNLLGPDKNLTE, the protein stability index was 3.22.
In the case of FASLRPSEPFLTPHLLGPDKNLTE, the protein stability index is reported as 2.57.
Variant FASLRPSEPFLTPQLLGPDKNLTE has a protein stability index of 2.69.
Work on FASLRPSEPFLTPRLLGPDKNLTE yielded a protein stability index of 2.87.
For FASLRPSKPFLTPYLLGPDKNLTE, the protein stability index was 2.1.
For FASLRPSYPFLTPYLLGPDKNLTE, the protein stability index was 1.72.
FASLRPSLPFLTPYLLGPDKNLTE gave a protein stability index of 1.26.
With FASLRPSEPFLTPYLLGPDYNLTE the protein stability index was 1.28.
With FASLRPSEPFLTPYLLGPDWNLTE the protein stability index was 2.04.
FASLRNSEPFLTPYLLGPDKNLTE gave a protein stability index of 1.76.
In the case of FASLRWSEPFLTPYLLGPDKNLTE, the protein stability index is reported as 2.98.
Variant FASLRVSEPFLTPYLLGPDKNLTE has a protein stability index of 1.9.
In the case of FASLRDSEPFLTPYLLGPDKNLTE, the protein stability index is reported as 2.17.
Work on FASGRPSEPFLTPYLLGPDKNLTE yielded a protein stability index of 2.93.
FASSRPSEPFLTPYLLGPDKNLTE gave a protein stability index of 1.61.
Work on FASLRPSEPFLKPYLLGPDKNLTE yielded a protein stability index of 1.88.
Work on FASLRPSEPFLVPYLLGPDKNLTE yielded a protein stability index of 1.28.
For FASLRPSEPFLNPYLLGPDKNLTE, the protein stability index was 2.05.
In the case of FASLRPSEPFLIPYLLGPDKNLTE, the protein stability index is reported as 2.
TASLRPSEPFLTPYLLGPDKNLTE gave a protein stability index of 3.44.
With QASLRPSEPFLTPYLLGPDKNLTE the protein stability index was 4.19.
Work on RASLRPSEPFLTPYLLGPDKNLTE yielded a protein stability index of 3.75.
IASLRPSEPFLTPYLLGPDKNLTE gave a protein stability index of 3.47.
For FTSLRPSEPFLTPYLLGPDKNLTE, the protein stability index was 1.97.
In the case of FFSLRPSEPFLTPYLLGPDKNLTE, the protein stability index is reported as 2.19.
For FASLRPSEPFLTPYLLGPDKNLTV, the protein stability index was 1.49.
FASLRPSEPFLTPYLHGPDKNLTE gave a protein stability index of 2.86.
In the case of FASLRPSEPFLTPYLTGPDKNLTE, the protein stability index is reported as 1.8.
With FASLRPSEPFLTPYLKGPDKNLTE the protein stability index was 2.27.
With FASLRPSEPFLTPYLLGPDKNKTE the protein stability index was 2.34.
For FASLRPSEPFLTPYLLGPDKNETE, the protein stability index was 2.03.
Variant FASLRPSEPFLTPYLLGPDKNGTE has a protein stability index of 2.04.
FASLRPSEPFLTPYLLGPDKNDTE gave a protein stability index of 2.65.
For FASLRPSEPFLTPYLLGPDKNNTE, the protein stability index was 2.35.
FASLRPSEPFLTPYLLGPDKYLTE gave a protein stability index of 2.42.
For FASLRPSEPFLTPYLLGPDKQLTE, the protein stability index was 1.88.
FASLRPSEPFLTPYLLGPDKRLTE gave a protein stability index of 1.95.
In the case of FASLRPSEPFLTPYLLGPDKLLTE, the protein stability index is reported as 1.87.
FASLRPSEPFLTPYLLLPDKNLTE showed a protein stability index of 2.22.
Work on FASLRPSEPFLTPYLLHPDKNLTE yielded a protein stability index of 1.75.
With FASLRPSEPFLTPYLLYPDKNLTE the protein stability index was 1.79.
For FASLRPSEPFLTPYLLRPDKNLTE, the protein stability index was 1.99.
FASLRPSEPFLTPYKLGPDKNLTE gave a protein stability index of 1.84.
With FASLRPSEPFLTPYTLGPDKNLTE the protein stability index was 2.19.
With FASLRPSEPFLTPYPLGPDKNLTE the protein stability index was 1.97.
FASLRPSEPFLTPYNLGPDKNLTE showed a protein stability index of 2.3.
Variant FASLRPSEPFLTPYRLGPDKNLTE has a protein stability index of 1.68.
FASLRPSEPFLTPYELGPDKNLTE showed a protein stability index of 2.03.
Work on FAWLRPSEPFLTPYLLGPDKNLTE yielded a protein stability index of 1.54.
In the case of FAILRPSEPFLTPYLLGPDKNLTE, the protein stability index is reported as 1.69.
FAGLRPSEPFLTPYLLGPDKNLTE gave a protein stability index of 1.65.
With FAFLRPSEPFLTPYLLGPDKNLTE the protein stability index was 1.93.
FAKLRPSEPFLTPYLLGPDKNLTE gave a protein stability index of 2.78.
With FASLRPSEPMLTPYLLGPDKNLTE the protein stability index was 2.35.
For FASLRPSEPCLTPYLLGPDKNLTE, the protein stability index was 2.11.
Work on FASLRPSEPYLTPYLLGPDKNLTE yielded a protein stability index of 2.04.
In the case of FASLRPSEPNLTPYLLGPDKNLTE, the protein stability index is reported as 3.22.
With FASLRPSEPTLTPYLLGPDKNLTE the protein stability index was 2.15.
In the case of FASLRPSEPRLTPYLLGPDKNLTE, the protein stability index is reported as 2.94.
FASLRPFEPFLTPYLLGPDKNLTE showed a protein stability index of 2.01.
FASLRPPEPFLTPYLLGPDKNLTE gave a protein stability index of 1.87.
With FASLRPDEPFLTPYLLGPDKNLTE the protein stability index was 1.92.
FASLRPVEPFLTPYLLGPDKNLTE gave a protein stability index of 2.27.
Work on FASLRPEEPFLTPYLLGPDKNLTE yielded a protein stability index of 1.82.
